Here are results for one molecule from article PMC11748629, “Unidirectional MCM translocation away from ORC drives origin licensing” (Nature Communications, 2025).

In assay [1] the target is T1, Mcm4 (Saccharomyces cerevisiae, UniProt P30665 1-933).
T1 construct: Mcm4, S. cerevisiae; Subunit of m4 and m7, written alone for the contacts seen in the structures; also called Mcm4 subunit of MCM; source: S. cerevisiae strains yGC216 and yGC226, purified as a subunit of MCM-Cdt1
T1 sequence: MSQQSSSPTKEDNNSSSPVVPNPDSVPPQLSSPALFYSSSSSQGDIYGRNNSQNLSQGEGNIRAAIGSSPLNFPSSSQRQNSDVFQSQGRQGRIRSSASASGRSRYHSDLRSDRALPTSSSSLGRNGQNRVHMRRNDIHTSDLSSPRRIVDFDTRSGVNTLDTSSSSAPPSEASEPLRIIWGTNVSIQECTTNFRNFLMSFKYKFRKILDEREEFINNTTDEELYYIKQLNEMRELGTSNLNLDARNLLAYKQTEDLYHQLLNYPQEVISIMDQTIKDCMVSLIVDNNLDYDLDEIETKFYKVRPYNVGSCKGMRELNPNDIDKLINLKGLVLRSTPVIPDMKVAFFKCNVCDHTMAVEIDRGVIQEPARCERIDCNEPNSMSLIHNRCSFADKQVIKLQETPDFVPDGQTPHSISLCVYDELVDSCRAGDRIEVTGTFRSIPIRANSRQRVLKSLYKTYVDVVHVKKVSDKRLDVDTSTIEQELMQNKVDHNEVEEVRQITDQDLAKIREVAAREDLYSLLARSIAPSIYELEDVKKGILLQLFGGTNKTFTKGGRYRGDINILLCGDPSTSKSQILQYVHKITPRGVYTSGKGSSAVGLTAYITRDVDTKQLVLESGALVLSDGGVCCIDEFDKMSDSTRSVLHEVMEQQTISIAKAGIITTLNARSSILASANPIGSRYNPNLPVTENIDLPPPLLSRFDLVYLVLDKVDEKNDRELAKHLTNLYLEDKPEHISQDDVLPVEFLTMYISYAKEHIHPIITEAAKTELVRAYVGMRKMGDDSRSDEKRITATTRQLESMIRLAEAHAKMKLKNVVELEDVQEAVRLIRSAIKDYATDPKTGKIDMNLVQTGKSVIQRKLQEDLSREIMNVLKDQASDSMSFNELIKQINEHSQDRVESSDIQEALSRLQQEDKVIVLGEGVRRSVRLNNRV
The experiment in a line: cryo-EM structure; OC1M^Mcm5RA: 30 nM MH-ARS1-MH DNA, 60 nM ORC, 90 nM Cdc6, 60 nM MCM-Cdt1 (Mcm5 R549A), 2 mM ATP; same buffer; 30 °C, 30 min; conformer 1 at 3.7 Å, conformer 2 at 3.4 Å (Orc1 ATPase domain seen only in conformer 1). Particulars: both partners purified.

Assay [2] has as its target T2, Orc1 (Saccharomyces cerevisiae, UniProt P54784 1-914).
T2 construct: Orc1, S. cerevisiae; Subunit of m1, written alone for the contacts seen in the structures; also called Orc1 subunit of ORC; source: S. cerevisiae strain ySD-ORC, purified as a subunit of ORC
T2 sequence: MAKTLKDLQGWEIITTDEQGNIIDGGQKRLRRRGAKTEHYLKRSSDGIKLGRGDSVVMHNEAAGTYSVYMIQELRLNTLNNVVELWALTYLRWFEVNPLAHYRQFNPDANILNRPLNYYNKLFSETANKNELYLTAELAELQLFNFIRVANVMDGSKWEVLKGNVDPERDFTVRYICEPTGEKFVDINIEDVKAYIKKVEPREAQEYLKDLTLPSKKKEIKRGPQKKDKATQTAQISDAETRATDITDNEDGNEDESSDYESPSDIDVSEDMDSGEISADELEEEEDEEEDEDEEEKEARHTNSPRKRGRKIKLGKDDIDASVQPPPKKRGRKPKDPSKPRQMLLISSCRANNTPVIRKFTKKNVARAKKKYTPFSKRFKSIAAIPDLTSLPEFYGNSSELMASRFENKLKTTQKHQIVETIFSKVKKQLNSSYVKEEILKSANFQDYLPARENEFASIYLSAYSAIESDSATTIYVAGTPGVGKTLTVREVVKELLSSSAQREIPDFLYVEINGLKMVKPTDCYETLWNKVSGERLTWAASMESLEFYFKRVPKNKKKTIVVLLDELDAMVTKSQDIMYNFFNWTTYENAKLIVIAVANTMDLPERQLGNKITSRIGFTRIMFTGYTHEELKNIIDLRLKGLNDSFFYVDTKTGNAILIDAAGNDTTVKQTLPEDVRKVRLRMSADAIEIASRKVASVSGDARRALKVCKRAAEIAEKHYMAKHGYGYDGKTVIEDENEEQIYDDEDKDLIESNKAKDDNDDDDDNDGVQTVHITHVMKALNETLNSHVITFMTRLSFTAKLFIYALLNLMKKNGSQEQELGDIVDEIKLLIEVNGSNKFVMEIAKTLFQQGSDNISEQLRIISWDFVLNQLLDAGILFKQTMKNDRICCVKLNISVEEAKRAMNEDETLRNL
Description: cryo-EM structure; OCCM^Mcm2RA: 30 nM MH-ARS1-MH DNA, 60 nM ORC, 90 nM Cdc6, 60 nM MCM-Cdt1 (Mcm2 R676A), 3 mM ATP; 25 mM HEPES pH 7.6, 100 mM potassium chloride, 10 mM magnesium acetate, 1 mM DTT; 30 °C, 30 min; 3.3 Å consensus, 3.2 Å local refinements. Particulars: both partners purified.

B1: Mcm7 (natural protein, Saccharomyces cerevisiae)
chain: MSAALPSIQLPVDYNNLFNEITDFLVTFKQDTLSSDATRNENEDENLDAENIEQHLLEKGPKYMAMLQKVANRELNSVIIDLDDILQYQNEKFLQGTQADDLVSAIQQNANHFTELFCRAIDNNMPLPTKEIDYKDDVLDVILNQRRLRNERMLSDRTNEIRSENLMDTTMDPPSSMNDALREVVEDETELFPPNLTRRYFLYFKPLSQNCARRYRKKAISSKPLSVRQIKGDFLGQLITVRGIITRVSDVKPAVEVIAYTCDQCGYEVFQEVNSRTFTPLSECTSEECSQNQTKGQLFMSTRASKFSAFQECKIQELSQQVPVGHIPRSLNIHVNGTLVRSLSPGDIVDVTGIFLPAPYTGFKALKAGLLTETYLEAQFVRQHKKKFASFSLTSDVEERVMELITSGDVYNRLAKSIAPEIYGNLDVKKALLLLLVGGVDKRVGDGMKIRGDINVCLMGDPGVAKSQLLKAICKISPRGVYTTGKGSSGVGLTAAVMKDPVTDEMILEGGALVLADNGICCIDEFDKMDESDRTAIHEVMEQQTISISKAGINTTLNARTSILAAANPLYGRYNPRLSPLDNINLPAALLSRFDILFLMLDIPSRDDDEKLAEHVTYVHMHNKQPDLDFTPVEPSKMREYIAYAKTKRPVMSEAVNDYVVQAYIRLRQDSKREMDSKFSFGQATPRTLLGIIRLSQALAKLRLADMVDIDDVEEALRLVRVSKESLYQETNKSKEDESPTTKIFTIIKKMLQETGKNTLSYENIVKTVRLRGFTMLQLSNCIQEYSYLNVWHLINEGNTLKFVDDGTMDTDQEDSLVSTPKLAPQTTASANVSAQDSDIDLQDA
notes: Mcm7, S. cerevisiae; Subunit of m4 and m7, written alone for the contacts seen in the structures; also called Mcm7 subunit of MCM; source: S. cerevisiae strains yGC216 and yGC226, purified as a subunit of MCM-Cdt1
For the molecule B1, the binding result in assay [1] and in assay [2] was “binds” throughout.
